The values below are quoted from earlier work in article PMC1297595.

The series addresses CD26 (Homo sapiens) (UniProt P27487).
UniProt P27487, sequence (P27487 39-766): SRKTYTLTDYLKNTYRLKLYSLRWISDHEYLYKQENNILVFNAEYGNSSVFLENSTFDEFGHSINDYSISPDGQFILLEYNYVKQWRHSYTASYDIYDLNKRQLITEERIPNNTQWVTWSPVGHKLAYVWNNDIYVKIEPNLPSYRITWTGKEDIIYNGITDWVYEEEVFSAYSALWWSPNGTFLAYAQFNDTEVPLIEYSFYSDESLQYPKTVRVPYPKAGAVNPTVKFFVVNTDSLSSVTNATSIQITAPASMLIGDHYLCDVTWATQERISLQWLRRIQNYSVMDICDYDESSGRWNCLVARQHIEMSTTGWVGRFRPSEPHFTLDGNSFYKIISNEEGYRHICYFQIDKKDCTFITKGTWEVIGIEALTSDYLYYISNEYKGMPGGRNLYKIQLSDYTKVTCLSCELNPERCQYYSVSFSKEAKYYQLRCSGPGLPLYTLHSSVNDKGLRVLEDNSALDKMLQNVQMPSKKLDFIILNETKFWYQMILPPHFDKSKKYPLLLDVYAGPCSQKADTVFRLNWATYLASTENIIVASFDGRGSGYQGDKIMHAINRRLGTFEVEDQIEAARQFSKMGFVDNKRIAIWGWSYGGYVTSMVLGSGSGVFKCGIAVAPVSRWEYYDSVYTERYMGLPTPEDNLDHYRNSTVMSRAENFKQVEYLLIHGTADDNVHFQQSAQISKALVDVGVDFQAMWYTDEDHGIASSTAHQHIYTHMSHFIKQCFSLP

For orientation: Kd means the free concentration of one partner at which half of the binding sites on the other are occupied at equilibrium, for simple one-to-one binding. Turning to ADA (from UniProt P00813), the dissociation constant Kd is 0.065 µM.
